{"source": "the nanobody polyreactivity screen of Harvey et al. (2022)"}
{"test": "yeast display, Sf9 membrane polyspecificity reagent, FACS + sequencing; frameworks hold sequencing errors", "how_it_was_run": "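Galactose-induced (36–48 hours) yeast carrying a synthetic nanobody display library were exposed to 10% biotinylated, detergent-solubilized Sf9 membrane reagent at 4 °C for 1 hour. FACS followed streptavidin microbead enrichment, using low and high (top ~1%) gates for expression (anti-HA) and reagent binding (streptavidin). Colony PCR, MiSeq 2 × 250 sequencing and CDR-length filtering followed. Labels for polyreactivity reflect the gate of origin.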"}
{"sequence": "QVQLVESGGGLVQAGGSLRLSCAASGSIFIPYTMGWYRQEPGKARELVAAITKRGGSTYYADSVKGRFTISRDNAKNSVYLQMNSLKPEDTAVYYCNAIKYDPGRWAEYGYWGQGTQVTVSS", "polyreactivity (PSR sort gate)": "high polyreactivity"}
{"sequence": "QVQLVESGGGLVQAGGSLRLSCAASGSIFIQYAMGWYRQAPGKERELVAAINSSGGRTYYADSVKGRFTISRDNAKNTVYLQMNRLKPEDTAVYYCAADHGSSFDWGQGTQVTVSS", "polyreactivity (PSR sort gate)": "low polyreactivity"}
{"sequence": "QVQLVESGGGLVQAGGSLRLSCAASGSIFITYAMGWYRQAPGKDRELVATITSRSGGTYYADSVKGRFTISRDNAKNTVYLQMNSLKQEDTAVYYCNAVYTYPVFHGMGYWGQGTQVTVSS", "polyreactivity (PSR sort gate)": "high polyreactivity"}
{"sequence": "QVQLVESGGGLVQAGGSLRLSCAASGSIFIVNAMGWYRQAPGKERELVAAITWSGGNTYYADSVKGRFTISRDNAKNTVYLQMNSLKPEDTAVYYCNSYWRGAFDYWGQGTQVTVSS", "polyreactivity (PSR sort gate)": "high polyreactivity"}
{"sequence": "QVQLVESGGGLVQAGGSLRLSCAASGSIFIVYAMGWYRQAPGKERELVATITSGGSTNYADSVKGRFTISRDNAKNTVYLQMNSLKPEDTAVYYCAAESYWGSGVVPGYDYWGQGTQVTVSS", "polyreactivity (PSR sort gate)": "low polyreactivity"}
{"sequence": "QVQLVESGGGLVQAGGSLRLSCAASGSIFIYNAMGWYRQAPGKERELVASITYRGGSTYYADSVKGRFTISRDKAKNTVYLQMNSLKPEDTAVYYCNAPQYFSYSWPYPREYDYWGQGTQVTVSS", "polyreactivity (PSR sort gate)": "high polyreactivity"}
{"sequence": "QVQLVESGGGLVQAGGSLRLSCAASGSIFIYNVMGWYRPAPGKERELVATSRGSGGSTYYADSVKGRFTISRDTAKNTVYLHMNSLKPEDTAVYFCCRRDYPYQWGRAYNYWGQGTQVTVSS", "polyreactivity (PSR sort gate)": "high polyreactivity"}
{"sequence": "QVQLVESGGGLVQAGGSLRLSCAASGSIFIYYAMGWYRQAPGKERELVAAITWRSGSTYYADSVKGRFTISRDNAKNTVYFQRNSLKPEDNAVNYCAAYAWTATDSARPYGYDYWGQGTQVTVSS", "polyreactivity (PSR sort gate)": "low polyreactivity"}
{"sequence": "QVQLVESGGGLVQAGGSLRLSCAASGSIFKAYAMGWYRQAPGKERELVAAISTSDGSTYYADSVKGRFTISRDNAKNNVYLLMNSLKPEDTAVYYCATEYDYWDDSYDYWGQGTQVTVSS", "polyreactivity (PSR sort gate)": "low polyreactivity"}
{"sequence": "QVQLVESGGGLVQAGGSLRLSCAASGSIFKAYAMGWYSQAPGKERELVAAITWSGGSTYYADSVKGRFTISRDNAKYTVYLQMNSLKPEDTAVYYCAADRLEGYYEDDATGFDYWGQGTQVTVSS", "polyreactivity (PSR sort gate)": "low polyreactivity"}
{"sequence": "QVQLVESGGGLVQAGGSLRLSCAASGSIFKCNAMGWYRQAPGKERELVASITRSGGSTYYADSVKGRFTISRDNAKNTVYLQMNSLKPEDTAVYYCARSYGWYRWAGYDYWGQGTQVTVSS", "polyreactivity (PSR sort gate)": "high polyreactivity"}
{"sequence": "QVQLVESGGGLVQAGGSLRLSCAASGSIFKFYAMGWYRQAPGKEREMVAVITYIGGSTYYADSVKGRFTISRDNAKNTVYLQMNSLKPEDTAVYYCNKDGAFHWVGSDPVYLFEYWGQGTQVTVSS", "polyreactivity (PSR sort gate)": "low polyreactivity"}
{"sequence": "QVQLVESGGGLVQAGGSLRLSCAASGSIFKGNAMGWYRQAPGKERDLVAAISRSGGSTYYADSVKGRFTISRDNAKNTVYLQMNSLKPEDTAVYYCNAVRRNTVRSKGRYDYWGQGTQVTVSS", "polyreactivity (PSR sort gate)": "high polyreactivity"}
{"sequence": "QVQLVESGGGLVQAGGSLRLSCAASGSIFKINAMGWYRQAPGKEREWVAAITRSGGSTYYADSVKGRFTISLDNAKNTVYLQMNSLKPEDTAVYYCNASTSRSTSLSSRFYYWGQGTQVTVSS", "polyreactivity (PSR sort gate)": "high polyreactivity"}
{"sequence": "QVQLVESGGGLVQAGGSLRLSCAASGSIFKINTMGWYRQAPGKERELVAAISKRGGSTYYADSVKGRFTISRDNAKNTVYLQMNSLKTEDTAVYYCAARQFYKYYYWGQGTQVTVSS", "polyreactivity (PSR sort gate)": "high polyreactivity"}
{"sequence": "QVQLVESGGGLVQAGGSLRLSCAASGSIFKPYAMGWYRQAPGKERELVAVISWRGGSTYYADSVKGRFTISRDYAKNTVYFQMNSLKPEDTAVYYCAARRYRYFDGTVPLDYWGQGTQVSVSS", "polyreactivity (PSR sort gate)": "high polyreactivity"}
{"sequence": "QVQLVESGGGLVQAGGSLRLSCAASGSIFKRNAMVSYRQAPGKERELVASISSGGSTHYADSVKGRFTISRDNAKNTVYLQMNSLTPEDTAVYYCAATSIRWSVCSFRRDYWGQGTQVTVSS", "polyreactivity (PSR sort gate)": "low polyreactivity"}
{"sequence": "QVQLVESGGGLVQAGGSLRLSCAASGSIFKRNDMGWYRQAPGKERELVAAITWSGGSTYYADSVKGRFTISRDNAKNTVYLQMNSLKPEDTAVYYCNAARDDWYIIKYDYWGQGTQVTVSS", "polyreactivity (PSR sort gate)": "low polyreactivity"}
{"sequence": "QVQLVESGGGLVQAGGSLRLSCAASGSIFKRNDMGWYRQAPGKERELVASISWGGTSTYYADSVKGRLTISRDLAKNTVYLKMYSLKPEDTAVYYCAARGLYTYKTYDDWGQGTLVTVSS", "polyreactivity (PSR sort gate)": "low polyreactivity"}
{"sequence": "QVQLVESGGGLVQAGGSLRLSCAASGSIFKRYAMGWDRQAPGKERELVASISSRGSSTNYADSVKGRFTISRDNAKNTVYLQMNSLKPEDTAVYYCAAEVYRGKYWSTYRGGDYWGQGTQVTVSS", "polyreactivity (PSR sort gate)": "high polyreactivity"}
{"sequence": "QVQLVESGGGLVQAGGSLRLSCAASGSIFKTNARGLYRQAPGTEREFVAAISWSGGSTYADSVKGRFTISRDTAKNTVYLQMNSLKPEDTAVYYCAAVDYYYYGVYSSWYDYWGQGTQVTVSS", "polyreactivity (PSR sort gate)": "low polyreactivity"}
{"sequence": "QVQLVESGGGLVQAGGSLRLSCAASGSIFKTYAMGWYRQAPGKERELVAAISRSTSRTYYADSVKGRFTISRDNAKNTVYLQMNSLKPEDTAVYYCAAHRSTRGTKLYYWGQGTQVTVSS", "polyreactivity (PSR sort gate)": "high polyreactivity"}
{"sequence": "QVQLVESGGGLVQAGGSLRLSCAASGSIFKVYAMGWYRQAPGKERELVAAITGGGRTYYADSVKGRFTISRDNAKNTVYLQMNSLKPEDTAVYYCNAVRGGYHVRYDYWGQGTQVTVSS", "polyreactivity (PSR sort gate)": "high polyreactivity"}
{"sequence": "QVQLVESGGGLVQAGGSLRLSCAASGSIFKVYAMGWYRQAPGKEREWVAAITWRGGSTYYADSVKGRFTISRDNAKNTVYLQMKSLKPEDTAVYYCGTEYCWKYDYWGQGTQVTVSS", "polyreactivity (PSR sort gate)": "low polyreactivity"}
{"sequence": "QVQLVESGGGLVQAGGSLRLSCAASGSIFKWYAMGWYRQAPGKEREFVAAITNGGGSTYYADSVKGRFTISRDNAKNTVYLQMNSLKPEDTAVYYCAKDGHSYYPWEYDYWGQGTQVTVSS", "polyreactivity (PSR sort gate)": "low polyreactivity"}
{"sequence": "QVQLVESGGGLVQAGGSLRLSCAASGSIFKWYTMGWYRQAPGKERELVAAITWGGGSTYYADSVKGRFTISRDNEKNTVYLQMNSLKPEDTAVYYCNREGWHYGPYGYWGQGTLVTVSS", "polyreactivity (PSR sort gate)": "low polyreactivity"}
{"sequence": "QVQLVESGGGLVQAGGSLRLSCAASGSIFKYFTMGWYRHAPGKERELVAYISSGGSTKYADSVKGRFTISRDNAKNTVYLQMNSLKPEDTAVYYCAKRYYYFYPDYDYWGQGTQVTVSS", "polyreactivity (PSR sort gate)": "high polyreactivity"}
{"sequence": "QVQLVESGGGLVQAGGSLRLSCAASGSIFKYNAMGWYRQAPGKERELVAAIRWSGVGTRYADSVKGRFTISRDNAKNTVYLQMNSLKPEDTAVYYCAADVTKYHDGHEYDYWGQGTQVTVSS", "polyreactivity (PSR sort gate)": "low polyreactivity"}
{"sequence": "QVQLVESGGGLVQAGGSLRLSCAASGSIFKYYAMGWYRQAPGKERELVAAISNGGSTNYADSLKGRFTISRDNAKNTVYLQMNSLKPEDTAVYYCAAGWFGYSAKYDYWGQGTRVTVSS", "polyreactivity (PSR sort gate)": "high polyreactivity"}
{"sequence": "QVQLVESGGGLVQAGGSLRLSCAASGSIFKYYTMGGYRQAPGKERELVAAISGSGSRTYYADSVKGRFTISRDNAKNTVYLQMNSLKPEDTAVYYCAAEVKDSFVNAKSYYWGQGTQVTVSS", "polyreactivity (PSR sort gate)": "high polyreactivity"}
